B1: human TWSG1 N-terminal domain (TWSG1 NTD, C26–S83) (domain or fragment)
chain: ETGCNKALCASDVSKCLIQELCQCRPGEGNCSCCKECMLCLGALWDECCDCVGMCNPRNYS
notes: residues of the vector between the secretion signal and TWSG1 NTD; Twisted gastrulation (TWSG1), human, N-terminal domain, residues C26–S83; Treated with endoglycosidase F1 in the purification described; The structural description gives the NTD as Cys26–Arg80; source: expressed and purified from dialyzed media similar to full-length TWSG1 (IMAC, HRV 3C cleavage, IMAC, SEC); not shown: mono Venus …
B2: human CHRDL2 (A25–T429) (natural protein)
chain: ETGARARPDMFCLFHGKRYSPGESWHPYLEPQGLMYCLRCTCSEGAHVSCYRLHCPPVHCPQPVTEPQQCCPKCVEPHTPSGLRAPPKSCQHNGTMYQHGEIFSAHELFPSRLPNQCVLCSCTEGQIYCGLTTCPEPGCPAPLPLPDSCCQACKDEASEQSDEEDSVQSLHGVRHPQDPCSSDAGRKRGPGTPAPTGLSAPLSFIPRHFRPKGAGSTTVKIVLKEKHKKACVHGGKTYSHGEVWHPAFRAFGPLPCILCTCEDGRQDCQRVTCPTEYPCRHPEKVAGKCCKICPEDKADPGHSEISSTRCPKAPGRVLVHTSVSPSPDNLRRFALEHEASDLVEIYLWKLVKGIFHLTQIKKVRKQDFQKEAQHFRLLAGPHEGHWNVFLAQTLELKVTASPDKVTKT
modifications: Asn-linked glycan (predicted at Asn 114)
notes: residues of the vector between the secretion signal and CHRDL2; Chordin-like protein 2 (CHRDL2), human, UniProt Q6WN34, residues A25–T429; also called Chordin superfamily member CHRDL2; source: expressed and purified from dialyzed media using IMAC followed by SEC as the full-length TWSG1
B3: human Twisted gastrulation (TWSG1), full-length glycosylated TWSG1 (Cys26–Phe223) (natural protein)
chain: ETGCNKALCASDVSKCLIQELCQCRPGEGNCSCCKECMLCLGALWDECCDCVGMCNPRNYSDTPPTSKSTVEELHEPIPSLFRALTEGDTQLNWNIVSFPVAEELSHHENLVSFLETVNQPHHQNVSVPSNNVHAPYSSDKEHMCTVVYFDDCMSIHQCKISCESMGASKYRWFHNACCECIGPECIDYGSKTVKCMNCMF
modifications: Asn-linked glycans (predicted at Asn 52, 81 and 147); fully glycosylated for binding, cellular and SEC-MALS assays; cut down to one N-acetylglucosamine with endoglycosidase F1 for crystallization
notes: residues of the vector between the secretion signal and TWSG1; Twisted gastrulation (TWSG1), human, UniProt Q9GZX9, residues C26–F223; Monomer-dimer equilibrium in solution; also called full-length TWSG1; wild-type TWSG1; source: HEK-293T, transient transfection, secreted, purified (IMAC, SEC)
B4: human Growth Differentiation Factor 5 (GDF5, A382–R501) (ligand)
chain: MAPLATRQGKRPSKNLKARCSRKALHVNFKDMGWDDWIIAPLEYEAFHCEGLCEFPLRSHLEPTNHAVIQTLMNSMDPESTPPTCCVPTRLSPISILFIDSANNVVYKQYEDMVVESCGCR
notes: N-terminal methionine of the expression construct; Growth differentiation factor 5 (GDF5), human, UniProt P43026, residues A382–R501, no tags; Disulfide-linked dimer
B5: human BMP7 (ligand, UniProt P18075 293-431, looked up)
chain: STGSKQRSQNRSKTPKNQEALRMANVAENSSSDQRQACKKHELYVSFRDLGWQDWIIAPEGYAAYYCEGECAFPLNSYMNATNHAIVQTLVHFINPETVPKPCCAPTQLNAISVLYFDDSSNVILKKYRNMVVRACGCH
notes: Bone morphogenetic protein 7 (BMP7), human; source: bought: Miltenyi Biotec
B6: human BMP2 (ligand, UniProt P12643 283-396, looked up)
chain: QAKHKQRKRLKSSCKRHPLYVDFSDVGWNDWIVAPPGYHAFYCHGECPFPLADHLNSTNHAIVQTLVNSVNSKIPKACCVPTELSAISMLYLDENEKVVLKNYQDMVVEGCGCR
notes: Bone morphogenetic protein 2 (BMP2), human; it speaks of BMP ligands in general as dimeric
B7: human TWSG1 C-terminal domain (TWSG1 CTD, T85–F223) (domain or fragment)
chain: ETGTPPTSKSTVEELHEPIPSLFRALTEGDTQLNWNIVSFPVAEELSHHENLVSFLETVNQPHHQNVSVPSNNVHAPYSSDKEHMCTVVYFDDCMSIHQCKISCESMGASKYRWFHNACCECIGPECIDYGSKTVKCMNCMF
notes: residues of the vector between the secretion signal and the TWSG1 domain; Twisted gastrulation (TWSG1), human, C-terminal domain, residues T85–F223; The methods sentence on this construct says 'followed by ETG, TWSG1 NTD' where CTD must be meant; The structural description gives the CTD as Pro87–Phe223; source: expressed and purified from dialyzed media using IMAC followed by SEC as the …

What was measured:
human BMP2 = target: B6; experiment: SPR; equilibrium binding, Biacore T200, 25 °C; BMP2, BMP7, GDF5 or CHRDL2 amine-coupled to a CM5 chip, TWSG1 proteins as analytes; 0.15 M NaCl, 20 mM HEPES pH 7.5, 2 mM CaCl2, 0.005% Tween 20; 1:1 binding isotherm; conditions: both partners purified
[1] = target: B4; experiment: as above; conditions: both partners purified
human BMP7 = target: B5; experiment: as above; conditions: both partners purified
[2] = target: the molecule itself; experiment: SEC-MALS; Superdex 200 HR 10/30, 150 mM NaCl, 10 mM HEPES pH 7.5, 2 mM CaCl2, 21 °C; proteins at 2 mg/ml, 0.1 ml per injection
human CHRDL2 (A25–T429) [3] = target: B2; experiment: as above; conditions: both partners purified
[4] = target: B3; experiment: SPR; equilibrium binding, Biacore T200, 25 °C; BMP2, BMP7, GDF5 or CHRDL2 amine-coupled to a CM5 chip, TWSG1 proteins as analytes; 0.15 M NaCl, 20 mM HEPES pH 7.5, 2 mM CaCl2, 0.005% Tween 20; 1:1 binding isotherm; conditions: both partners purified
[5] = target: the molecule itself; experiment: crystal structure; TWSG1 NTD and GDF5 mixed 1:1 mol:mol, crystallized with CaCl2; 1.96 Å
TWSG1 Ile40Ala = TWSG1 Ile40Ala (human, UniProt Q9GZX9 26-223, Ile40Ala, Asn-linked glycans (predicted Asn52, Asn81, Asn147; fully glycosylated, HEK-type expression without kifunensine); disulfide-rich. Parent construct inferred: the methods state that the C26-F223 constru); experiment: SPR; as a1, BMP7 immobilized at higher level (7372 RU); conditions: both partners purified
human CHRDL2 (A25–T429) [6] = target: B2; experiment: SPR; equilibrium binding, Biacore T200, 25 °C; BMP2, BMP7, GDF5 or CHRDL2 amine-coupled to a CM5 chip, TWSG1 proteins as analytes; 0.15 M NaCl, 20 mM HEPES pH 7.5, 2 mM CaCl2, 0.005% Tween 20; 1:1 binding isotherm; conditions: both partners purified

B1
Kd (human BMP2): 1.01 µM
Kd [1]: 0.38 µM
Kd (human BMP7): 0.094 µM

B2
binding result [2]: binds

B3
stoichiometry N [2]: 2
binding result (human CHRDL2 (A25–T429) [3]): binds

B4
binding result [4]: binds
binding result [5]: binds

B5
binding result [4]: binds
Kd (TWSG1 Ile40Ala): 454 µM

B6
binding result [4]: binds

B7
fold weaker than the TWSG1 NTD (human BMP2): ~100 fold
fold weaker than the TWSG1 NTD [1]: ~100 fold
fold weaker than the TWSG1 NTD (human BMP7): ~100 fold
Kd (human CHRDL2 (A25–T429) [6]): 0.46 µM
